Results taken from IntAct's records for PubMed 16990133.

B1: Protein SST2 (Saccharomyces cerevisiae), P11972 (parent)
chain: MVDKNRTLHELSSKNFSRTPNGLIFTNDLKTVYSIFLICLDLKEKKHSSDTKSFLLTAFTKHFHFTFTYQEAIKAMGQLELKVDMNTTCINVSYNIKPSLARHLLTLFMSSKLLHTPQDRTRGEPKEKVLFQPTPKGVAVLQKYVRDIGLKTMPDILLSSFNSMKLFTFERSSVTDSIIHSDYLIHILFIKMMGAKPNVWSPTNADDPLPCLSSLLEYTNNDDTFTFEKSKPEQGWQAQIGNIDINDLERVSPLAHRFFTNPDSESHTQYYVSNAGIRLFENKTFGTSKKIVIKYTFTTKAIWQWIMDCTDIMHVKEAVSLAALFLKTGLIVPVLLQPSRTDKKKFQISRSSFFTLSKRGWDLVSWTGCKSNNIRAPNGSTIDLDFTLRGHMTVRDEKKTLDDSEGFSQDMLISSSNLNKLDYVLTDPGMRYLFRRHLEKELCVENLDVFIEIKRFLKKMTILKKLIDSKHCDKKSNTSTSKNNIVKTIDSALMKQANECLEMAYHIYSSYIMIGSPYQLNIHHNLRQNISDIMLHPHSPLSEHFPTNLYDPSPASAESAASSISSTEADTLGEPPEVSLKPSKNLSNENCSFKKQGFKHQLKEYKPAPLTLAETHSPNASVENSHTIVRYGMDNTQNDTKSVESFPATLKVLRKLYPLFEIVSNEMYRLMNNDSFQKFTQSDVYKDASALIEIQEKC
partner: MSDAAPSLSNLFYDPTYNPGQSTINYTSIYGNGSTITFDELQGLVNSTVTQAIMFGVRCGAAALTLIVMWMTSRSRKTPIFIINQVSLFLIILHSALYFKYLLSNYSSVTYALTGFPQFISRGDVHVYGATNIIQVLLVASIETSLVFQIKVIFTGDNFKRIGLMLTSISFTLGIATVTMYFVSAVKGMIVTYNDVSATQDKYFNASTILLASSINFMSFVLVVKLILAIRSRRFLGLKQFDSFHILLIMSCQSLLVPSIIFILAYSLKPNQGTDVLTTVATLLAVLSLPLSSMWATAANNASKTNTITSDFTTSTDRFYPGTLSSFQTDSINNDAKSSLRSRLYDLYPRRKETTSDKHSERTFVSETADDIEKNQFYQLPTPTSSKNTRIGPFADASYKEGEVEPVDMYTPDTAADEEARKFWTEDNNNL
B2: Pheromone alpha factor receptor (Saccharomyces cerevisiae (Baker's yeast)), P0CI39 (parent)
chain: B1 partner
partner: B1 chain
B3: Protein SST2 (Saccharomyces cerevisiae), P11972 (parent)
chain: B1 chain
partner: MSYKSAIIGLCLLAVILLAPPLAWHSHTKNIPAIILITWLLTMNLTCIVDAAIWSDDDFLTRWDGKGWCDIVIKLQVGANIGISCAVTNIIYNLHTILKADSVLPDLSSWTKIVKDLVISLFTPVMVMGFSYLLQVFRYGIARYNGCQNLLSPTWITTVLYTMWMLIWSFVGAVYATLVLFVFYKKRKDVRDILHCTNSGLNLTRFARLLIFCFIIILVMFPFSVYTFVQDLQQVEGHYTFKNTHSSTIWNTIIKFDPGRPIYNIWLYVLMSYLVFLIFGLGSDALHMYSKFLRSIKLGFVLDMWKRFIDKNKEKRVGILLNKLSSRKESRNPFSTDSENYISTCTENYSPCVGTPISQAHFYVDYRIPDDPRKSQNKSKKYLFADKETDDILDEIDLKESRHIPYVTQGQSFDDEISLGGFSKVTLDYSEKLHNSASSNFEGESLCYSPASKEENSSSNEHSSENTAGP
B4: Pheromone a factor receptor (Saccharomyces cerevisiae), P06783 (parent)
chain: B3 partner
partner: B1 chain

Variants of: B1
Conditions: with ste2_yeasx STE2, P0CI39

| Variant | effect of a mutation on the interaction |
| --- | --- |
| Q304N | disrupting interaction |

Variants of: B1
Conditions: with ste2_yeasx STE2, P0CI39
Remark: another data set of the same source

| Variant | effect of a mutation on the interaction |
| --- | --- |
| Q304E | disrupting interaction |
| Q304L | disrupting interaction |

Variants of: B2
Conditions: with sst2_yeast SST2, P11972

| Variant | effect of a mutation on the interaction |
| --- | --- |
| MSDAAPSLSNLFYDPTYNPGQSTINYTSIYGNGSTITFDELQGLVNSTVTQAIMFGVRCGAAALTLIVMWMTSRSRKTPIFIINQVSLFLIILHSALYFKYLLSNYSSVTYALTGFPQFISRGDVHVYGATNIIQVLLVASIETSLVFQIKVIFTGDNFKRIGLMLTSISFTLGIATVTMYFVSAVKGMIVTYNDVSATQDKYFNASTILLASSINFMSFVLVVKLILAIRSRRFLGLKQFDSFHILLIMSCQSLLVPSIIFILAYSLKPNQGTDVLTTVATLLAVLSLPLSSMWATAANNASKTNTITSDFTTSTDRFYPGTLSSFQTDSINNDARSSLRSRLYDLYPRRRETTSDRHSERTFVSETADDIERNQFYQLPTPTSSRNTRIGPFADASYREGEVEPVDMYTPDTAADEEARRFWTEDNNNL [K337R;K352R;K358R;K374R;K387R;K400R;K422R] | increasing interaction |

Variants of: B3
Conditions: with ste3_yeast STE3, P06783

| Variant | effect of a mutation on the interaction |
| --- | --- |
| Q304N | disrupting interaction |

Variants of: B4
Conditions: with sst2_yeast SST2, P11972

| Variant | effect of a mutation on the interaction |
| --- | --- |
| MSYKSAIIGLCLLAVILLAPPLAWHSHTKNIPAIILITWLLTMNLTCIVDAAIWSDDDFLTRWDGKGWCDIVIKLQVGANIGISCAVTNIIYNLHTILKADSVLPDLSSWTKIVKDLVISLFTPVMVMGFSYLLQVFRYGIARYNGCQNLLSPTWITTVLYTMWMLIWSFVGAVYATLVLFVFYKKRKDVRDILHCTNSGLNLTRFARLLIFCFIIILVMFPFSVYTFVQDLQQVEGHYTFKNTHSSTIWNTIIKFDPGRPIYNIWLYVLMSYLVFLIFGLGSDALHMYSKFLRSIKLGFVLDMWKRFIDKNKEKRVGILLNKLSSRKESRNPFSTDSENYISTCTENYSPCVGTPISQAHFYVDYRIPDDPRKSQNKSKKYLFADKETDDILDEIDLKESRHIPYVTQGQSFDDEISLGGFSRVTLDYSERLHNSASSNFEGESLCYSPASREENSSSNEHSSENTAGP [K424R;K432R;K453R] | increasing interaction |
